Experiment [1] deals with T1, His-tagged human PD-L1 (human, UniProt Q9NZQ7 19-238, limits assumed).
T1 construct: also called Human PD-L1 protein; Human PDL1-His; not shown: His tag
In words: SPR, Biacore T200; B12-01 captured on protein A chip, human PD-L1 25 nM-1.56 nM injected. An excerpt:
(§1) The ligand was allowed to associate for 120 s and dissociate for 600 s.

Experiment [2] has as its target T1, His-tagged human PD-L1. The experiment is described as follows: Biacore T200 SPR, B12-01 captured on a protein A chip, human PD-L1-His injected at 25 nM-1.56 nM.
Text: as §1
A general note: Surface plasmon resonance follows binding to a sensor surface in real time, without labels.

Experiment [3] has as its target T2, human PD-L1 on Raji cells (human, UniProt Q9NZQ7 19-290). In words: cell-based or functional assay.
In the next experiment the target is rat PDL1-His (rat, UniProt D4AE25 19-239). The experiment is described as follows: ELISA, PDL1-His coated at 0.5 µg/ml. The protocol: (§2) Human, cyno, rat and mouse PDL1-His proteins were coated at 0.5 μg/ml at 4° C. overnight. […] The plates were washed and then incubated with HRP conjugated mouse anti-human IgG Fc antibody followed by development with TMB substrate and analyzed by spectrophotometer at OD 450 nm.

A further experiment concerns the target T3, mouse PDL1-His (mouse, UniProt Q9EP73 19-238, limits assumed).
T3 construct: not shown: His tag
In words: ELISA, PDL1-His coated at 0.5 µg/ml. The protocol: as §2
For orientation: An ELISA detects its analyte on a solid surface through an enzyme-linked reagent.

Experiment [4] addresses T1, His-tagged human PD-L1. In words: ELISA, plate coated with PDL1-His at 0.5 ug/ml, detection with HRP mouse anti-human IgG Fc, OD 450nm. The protocol:
as §2

In a further experiment the target is cyno PDL1-His (cyno, UniProt G7PSE7 19-238). Described as above. The protocol:
as §2

Experiment [5] addresses T2, human PD-L1 on Raji cells. The experiment is described as follows: flow cytometry blocking assay on Raji-PDL1 cells; blocked ligand: biotinylated Avi- and His-tag human PD1 protein at 3 ug/mL, Streptavidin-PE, MFI. As for the experimental part:
Raji cells over-expressing human PDL1 were seeded into the 96 well plate at a concentration of 1×10⁵ cells per well. […] Fluorescence was measured by flow cytometry and analyzed by Flowjo software to determine the mean fluorescence intensities (MFI).

T1 sequence (Q9NZQ7 19-238 limits assumed): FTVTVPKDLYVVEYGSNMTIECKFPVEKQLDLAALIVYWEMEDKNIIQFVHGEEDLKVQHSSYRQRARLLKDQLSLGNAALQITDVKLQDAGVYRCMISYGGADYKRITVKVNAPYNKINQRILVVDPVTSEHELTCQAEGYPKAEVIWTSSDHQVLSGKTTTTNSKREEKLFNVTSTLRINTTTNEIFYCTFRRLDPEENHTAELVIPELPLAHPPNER
T2 sequence (Q9NZQ7 19-290): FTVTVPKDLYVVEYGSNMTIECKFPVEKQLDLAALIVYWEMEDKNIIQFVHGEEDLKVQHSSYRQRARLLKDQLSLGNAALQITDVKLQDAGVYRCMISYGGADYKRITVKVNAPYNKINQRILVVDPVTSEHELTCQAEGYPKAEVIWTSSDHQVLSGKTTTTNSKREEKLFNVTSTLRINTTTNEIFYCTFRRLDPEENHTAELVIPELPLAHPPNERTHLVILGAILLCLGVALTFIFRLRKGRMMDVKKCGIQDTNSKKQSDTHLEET
Chain of cyno PDL1-His (G7PSE7 entry or part of it limits assumed): as the sequence (Q9NZQ7 19-238 limits assumed) above, with A33T, A34S, S62N, R68Q, Q82R, F173L, T185A, T192I, H215L counted along it
Chain of rat PDL1-His (D4AE25 entry or part of it limits assumed): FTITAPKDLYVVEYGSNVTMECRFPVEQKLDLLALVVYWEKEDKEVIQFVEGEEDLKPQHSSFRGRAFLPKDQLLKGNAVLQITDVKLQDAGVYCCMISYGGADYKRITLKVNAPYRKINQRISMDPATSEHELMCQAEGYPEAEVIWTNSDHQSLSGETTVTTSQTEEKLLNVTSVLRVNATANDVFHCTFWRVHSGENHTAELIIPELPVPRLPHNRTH
T3 sequence (Q9EP73 19-238 limits assumed): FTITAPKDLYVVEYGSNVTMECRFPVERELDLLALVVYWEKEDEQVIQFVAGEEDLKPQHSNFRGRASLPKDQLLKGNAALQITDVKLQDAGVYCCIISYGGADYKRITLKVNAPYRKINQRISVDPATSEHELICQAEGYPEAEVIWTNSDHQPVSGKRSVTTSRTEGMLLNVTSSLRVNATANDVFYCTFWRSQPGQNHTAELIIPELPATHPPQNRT

B1: B12-01 (antibody, V domains shown)
VH: QVQLLESGGGLVQPGGSLRLSCAASGFTFSSYWMSWVRQAPGKGLEWVANIKQDGSEKYYVDSVKGRFTISRDNAKNSLYLQMNSLRAEDTAVYYCARVALWDDAFDIWGQGTMVTVSS
VL: DIQMTQSPSTLSASVGDRVIITCRASRGISSWLAWYQQKPGKAPNLLISKASSLESGVPSRFSGSGSGTDFTLTISSLQPEDFATYYCQQSSSIPLTFGGGTKVEIK
notes: Variant of B12 with serine at the C-terminus of VH and DIQM at the N-terminus of VL; captured on protein A and detected with anti-human IgG Fc, so a human IgG; also called B12-01 antibody
Broadly, the Kd is the equilibrium constant for the complex coming apart. The koff is the rate constant with which the complex falls apart. Read a high koff as a short-lived complex. The term kon denotes the second-order rate constant of association. Low readings indicate slower complex formation, high ones faster complex formation. What is called EC50 (read off the curve) is the concentration that produces a half-maximal response. Higher therefore signals a less potent agent. What is called EC50 is the concentration at which the effect is half-maximal. B1 yielded a Kd in the experiment with His-tagged human PD-L1 [1] of 0.948 nM. The molecule further displayed a dissociation rate constant (koff) with His-tagged human PD-L1 [2] of 0.000795 s⁻¹. Moreover, the kon with His-tagged human PD-L1 [2] was found to be 838000 M⁻¹ s⁻¹. The “EC50, NF-AT-luciferase activity, PD-1 Jurkat cells with Raji-PD-L1 cells” value in experiment [3] amounted to 0.098 nM. Besides, the binding result in the experiment with rat PDL1-His and with mouse PDL1-His was “no binding” in each case. Besides, the “EC50 (read off the curve)” value with His-tagged human PD-L1 [4] is around 0.03 nM; with cyno PDL1-His, around 0.04 nM. In experiment [5], the EC50 is 0.14 nM.

(Values after patent US20210309747A1 (I MAB BIOPHARMA US, published 2021).)
